B1: Kashmir bee virus: "an IRES is an IRES sequence of ... Kashmir bee virus" (nucleic acid)
DNA: TACGTACAATTTTGACGCTTCGTTCATGCAACAATGAACTCACATGTGGCGCTCGGTAGTAACCAGAGGGGCGTCATTCCCCCGTATGGAGTGGAGAATATAAGCTACCGACTCGAGCTGTAGAATAATTCAGCAACTTATAACGAACACGAATTTTAGTCGACGAAACCATTTTAGCCTTTAATTCTATGATTTGATTATAATGATAAACAGCTCATGTAACTGTCTAAACTACATAAATACAACTGGATTACGAACCTTTAAGTAACTATCTTAGATGAAGTCTAGTAGTCTCCCAATATTTCCGTGAAAAGAATGAGGGACGAGATAGCTCTATTTAAAGACGTGAGGCTTTAAATTCTGATAAATACATTACCTGAGAATTCCTCCTTTAGGAGTTAGAATTTGAAAAGATTAGTACCTATACTTAATAGAATTTAAATATGTTAATAATGCTGAAGACAAGTATTTCGATTATTAACCTCTATATTTCTATATAAAGTATCTGTGAGTCTCAGTGGACATCACAGTAAGGTCGCAGTTAACTTGTAATCTTTTCATTCCTGTGTCGGAGCAGTGGTAATGGAGCCGGACGATTTCGCCAAAAC
modifications: Kashmir bee virus
B2: Lesavirus 1 (nucleic acid)
DNA: GTAACTAATAAGCAAGTTTTACTGCCTGCAAACTGCTTCAATGGGACCACCGCTTCGGCGACCCCTTTGTTGAGTTTGTATGTTTTTAAGTAATCTTTGCAACCATACGATTATTTTAGCCGCCTCTCTATAATGATCTTGTTATAGTGGGACGTGAAACATTGGTTTTTCTCACACACGTCCGGTCACCCGGGCGTGTGTTCTTCCGTAAGTCCTATCCACATACCATCGTGGGTAGGCCAGCATGTTTGCACAGGCTGTGACAGTGTGGGTGGGCTTTCCACCTCTCAACAACACACTGAATTGCAATGCACTCACGGAGGAAATGACAATTTGGTTATAGTTTTGAACTGTGCTAGTAATTTCTTTCACATTAAGCCATGTTGCCTGCGGAATCACATGTGGTAACACATGCCTCAGGGCCCAAAAGGCACGGGTTAGCAGCCCCTTCATGGTGTGTTAGAAGTGAAAACACATAGTATGAGCTATAATATCTTTGTTGTCTTCTCTGTAGTGTACCCCGCCAAATGTAAGGATGCCCAGCAGGTACCCATTTTATGGATCTGAGCTGGGGATTGATAGTGTATCTATAAATGCACTGATCAATTTAAAAAGCGTCTAAGTTTGGCACAAACACTGGGGACAGTGTTTTTCCTTTATTCTTTTATTTGATTA
modifications: lipid formulation; source: /note="Description of Unknown: Lesavirus 1 sequence"
B3: Rabovirus A (nucleic acid)
DNA: CTACGGATATTTGCATGACCCGCTTTCTATCGCCCCAACAATCCCCTTTGTAACCACAAGCTTTACTCAGGCTAGCAGCCCGACTAGCTGTTTGGAAGAAAAGGCTAGGGCACACACCAACAACACCGACCCCACTGGTCGAAGGCCGCTTGGCAATAAGACTGGTGGAACAGGGTCGCCTGTAGTTGTTTGGAACATTCTTTCTAATGACTTTGTCAGCGGTGCTACTCACACCGTAACTCTTCTACCCTATCCCCACGCTTGTGGAACTAGGAGGGGATGAGTGATTCAAGTAAGTACTGTCAGAATGGTGAAAATGATCTGATTCTGAAACGCTATGGATCCATCGAAAGATGGGGCTACACGCCTGCGGAACAACACATGGTAACATGTGCCCCAGGGGCCGAAAGCCACGGTGATAGGATCACCCGTGTAGTTTGAGATCATATCAATGTTCATAGTCTAGTAAGATGATTTGAAATCTAACTGAGCTGATGGCTAACTGCTTGTCTTATTGCGGCCTAAGGATGTCCTGCAGGTACCTTTAGATAACCTTAAGAGACTATTGATCTGAGCAGGAGCCAAAGTGGTCTTTCCCAGCTTTGGTTAAAAAACGTCTAAGCCGCGGCAGGGGGCGGGAGGCCCCCTTTCCTCCCAAAACTTAATATTGATTGT
modifications: lipid formulation; Rabovirus A
B4: Seneca valley virus (nucleic acid)
DNA: TTTGAAATGGGGGGCTGGGCCCTGATGCCCAGTCCTTCCTTTCCCCTTCCGGGGGGTTAACCGGCTGTGTTTGCTAGAGGCACAGAGGGGCAACATCCAACCTGCTTTTGCGGGGAACGGTGCGGCTCCGATTCCTGCGTCGCCAAAGGTGTTAGCGCACCCAAACGGCGCACCTACCAATGTTATTGGTGTGGTCTGCGAGTTCTAGCCTACTCGTTTCTCCCCCGACCATTCACTCACCCACGAAAAGTGTGTTGTAACCATAAGATTTAACCCCCGCACGGGATGTGCGATAACCGTAAGACTGGCTCAAGCGCGGAAAGCGCTGTAACCACATGCTGTTAGTCCCTTTATGGCTGCAAGATGGCTACCCACCTCGGATCACTGAACTGGAGCTCGACCCTCCTTAGTAAGGGAACCGAGAGGCCTTCGTGCAACAAGCTCCGACACAGAGTCCACGTGACTGCTACCACCATGAGTACATGGTTCTCCCCTCTCGACCCAGGACTTCTTTTTGAATATCCACGGCTCGATCCAGAGGGTGGGGCATGACCCCTAGCATAGCGAGCTACAGCGGGAACTGTAGCTAGGCCTTAGCGTGCCTTGGATACTGCCTGATAGGGCGACGGCCTAGTCGTGTCGGTTCTATAGGTAGCACATACAAAT
modifications: source: /note="Description of Unknown: Seneca valley virus sequence"
B5: Shingleback nidovirus 1 (nucleic acid)
DNA: CTGTGAGTACCGACAGGCTCGAAGTCTATTATGAGGCGTCGAAACAGAAAACCTGTAACAACTCCGGTTTCATCTATCACTGCCGTCAAGAGGCAGAAGAGGACGACCACGTGTCACCAGATCACTTGTATCTGTTTCAGTCAGGAAGTCAACTTTTCGACGAAGTTCGACCATTCATCGACCCGCTGAAAAGCGTAGAAGTCGATGAAGATGAGCTCCAAAGAGCCATCGCCGATTTCGACAACCAAAGTGACTGTTTCCACTCCTTCGAGCTCGTGAATTTCGAGCTGAAACAACAAATCAACGAGAACGAGTGGTACGGTTATTATAATTACGACAACCAAAACTGCAAAGTTCAGTTGCCAGTCACATGTCGAATCGAGGACGTAACCTGGGATCAGGTTTACGTG
modifications: Shingleback nidovirus 1
B6: Picornavirales Tottori-HG1 (nucleic acid)
DNA: AGCCATGAACTAGTGTGCGATTCCCACAGTGTTGGTCGAAAGCCCCGCACTGTCTACTCGCATATTTGACTCCAGTCCTTCCGCAGCCAGCGGTTAGGTTCTGGTTAAAGTGCATTATGTGCACGGCGCCACGCAGAACTGCCAGAAATGGTAAGCTGCGCCCAACGCCAACGGTTTGTGTATCCCGTTAGTCACACGTTTACAGCTGTTCGTTAACAGTAGGGTTTTGTCGACCCGGACCCCTTAATGCGCGCGAATTCAACCGCGCCTAGTCGGCAATGGTATCATTTAATCCCATGCACTACGGGAGAAATTTGAGACCAAAGAATTCCTGAGGGCCACTGCTTGCTCTAAGTGCAATGCCTCGGGAGACTTCTGTCAGGAGCCTAGCGGCTTTCAACCGCGACAGCTAACTCCTGCGGGATGTTTGGTGTCCATACTTACTGGCGTCCTCACAACGCTAAGTGGATGTTGTCCACAGGTAGGCAAACACCGAGCCCCACATTCAGGAGACCTGTATGAACGATCCTATCAGCATTAGAGTTGGAATTGGGTGTGCTAACGTCCGCATAAGTGCACCCCGTGGTAACGCTGGGAAACTATCCAGCGCAACGTACTGTCCTCAATGTCTAGGGAAGGACCGCCCTAAGCGTACAACCGGGCCATGTGTCGAGC
modifications: lipid formulation; source: /note="Description of Unknown: Picornavirales Tottori-HG1 sequence"
B7: Porcine reproductive and respiratory syndrome virus 2 (nucleic acid)
DNA: ATGACGTATAGGTGTTGGCTCTATGCCTTGGCATTTGTATTGTCAGGAGCTGTGACCATTGGCACAGCCCAAAACTTGCTGCACAGAAACACCCTTCTGTGATAGCCTCCTTCAGGGGAGCTTAGGGTTTGTCCCTAGCACCTTGCTTCCGGAGTTGCACTGCTTTACGGTCTCTCCACCCCTTTAACC
modifications: lipid formulation; source: /note="Description of Unknown: Porcine reproductive and respiratory syndrome virus 2 sequence"
B8: Miniopterus schreibersii picornavirus 1 (nucleic acid)
DNA: GTTGTCGACCCGTTGCTTGGTTTAAGCATGAGGTGGATTCCCCCGATTATGTCTACCCGTTACTATGGCGGGCGGTCGTTTCAGGGTGTTTCTACTGAGGACTGCACCAAGTCTTTATCTTTTATTCTCAGATCTCCGGCTGTTTGACGCTTGTAGGACAGCAGGACTATTTTCTCTTAATCTTTTTCTACCCACTAGGGTCCTATCCTAGTGGAGGGAGGGTGCCACCCCTTCTCTCTTTAGAGAGTGCGCCTGGCGGTCTTTCCGTCTCTGGAAAAAGGAGCACATGGCATGCTACAATTGGCACAAGAAAACAAGCTTTGCGGATTCTTTCTTTGTACTAGAGGAAGCTGTAGCGACCCTGTATGGCGAGCGGACTCCCCTCTCGGCGACGAGAGCCTCTCGGGCCAAAAGCCAAGTGTTAATAGCACCCATACAGGCGGCAGTACCCCACTGCCCTTTCTCAACATACAATGACTGATGAACCACTGTTGGTTTTTCTGACACCTTTGTAGTAGGATTCCAAGGAATGTCCTGAAGGTACCCTGTTAGCTTACGCGCAGGATCTGATCAGGAGTCTCTTTACAGTGCTGTACACTGTGCAAGGGATTAAAAATTGTTTGAGGAATCCCCGAGATAGTGGTCTATCTCTTCCTATTTTGTTTTACAGACACG
modifications: lipid formulation; source: /note="Description of Unknown: Miniopterus schreibersii picornavirus 1 sequence"
B9: Jingmen picorna-like virus (nucleic acid)
DNA: TGTGTTTTTGTCAAGATAATTGTTCTGTGATTAACAGTGATTGTGGTTCGTGTAATGCGACGCAGTCAAATGCTAGTTTTGATGAAGTGTATGAGAGAGTGGAAAACTTATCTCATAAGAAGATTGAAGAGTGTGTAGATCAGGCTATTGATCGAGCTTCTAAGCTTCGTGATTACAAGCTTAATGTTCACAATGGCTCCCGACGGGAATCATCTGATCCTCTCTTTATTTCGCCCCATTCGTTGTTATCGCTTGGGGTATCTAAGTTTGTTGCGTTTGAGCAGCATCACAGTTTCGCTTCAGTTGAGTCTCTGAAGTTGCTTGCTCTGTCT
modifications: source: /note="Description of Unknown: Jingmen picorna-like virus sequence"

Tested on: HEK293 cells
Format: cell-based, human
Conditions: circular RNA encoding Gluc with the listed IRES (UTR truncated to 675 nt) transfected into HEK293 cells; supernatant after 24 hours

| Molecule | Expression (luminescence from secreted Gluc protein) |
| --- | --- |
| B1 | 1.65E+05 |
| B2 | 6.37E+06 |
| B3 | 2.88E+06 |
| B4 | 1.46E+07 |
| B5 | 2.62E+05 |
| B6 | 9.54E+04 |
| B7 | 1.29E+05 |
| B8 | 6.05E+06 |
| B9 | 9.32E+04 |
